Read-outs that look alike come from different tables or passages of the source.
Columns and labels:
[1] = tested on: versican in the ECM materials deposited by TA3 transfectants
[2] = molecular target: versican in the ECM materials deposited by TA3 transfectants; remark: listed apart in the source

| Molecule | degradation of versican in ECM of TA3 transfectants (Western blot, anti-DP antibody) [1] | auto-proteolytic cleavage of purified ADAMTS-1 in vitro (Western blot, anti-v5) (P97857) | degradation of versican in ECM of TA3 transfectants (Western blot, anti-DP antibody) [2] |
| --- | --- | --- | --- |
| ADAMTS-1E/Q, protease-dead mutant of mouse ADAMTS-1 (E386 to Q), v5-epitope tagged | expression of ADAMTS-1E/Q but not ADAMTS-1NTF, ADAMTS-1CTF inhibits the degradation |  |  |
| full-length mouse ADAMTS-1, v5-epitope tagged (wild type) (protein) ARGAHGRPTEEDEELVLPSLERAPGHDSTTTRLRLDAFGQQLHLKLQPDSGFLAPGFTLQTVGRSPGSEAQHLDPTGDLAHCFYSGTVNGDPGSAAALSLCEGVRGAFYLQGEEFFIQPAPGVATERLAPAVPEEESSARPQFHILRRRRRGSGGAKCGVMDDETLPTSDSRPESQNTRNQWPVRDPTPQDAGKPSGPGSIRKKRFVSSPRYVETMLVADQSMADFHGSGLKHYLLTLFSVAARFYKHPSIRNSISLVVVKILVIYEEQKGPEVTSNAALTLRNFCSWQKQHNSPSDRDPEHYDTAILFTRQDLCGSHTCDTLGMADVGTVCDPSRSCSVIEDDGLQAAFTTAHELGHVFNMPHDDAKHCASLNGVSGDSHLMASMLSSLDHSQPWSPCSAYMVTSFLDNGHGECLMDKPQNPIKLPSDLPGTLYDANRQCQFTFGEESKHCPDAASTCTTLWCTGTSGGLLVCQTKHFPWADGTSCGEGKWCVSGKCVNKTDMKHFATPVHGSWGPWGPWGDCSRTCGGGVQYTMRECDNPVPKNGGKYCEGKRVRYRSCNIEDCPDNNGKTFREEQCEAHNEFSKASFGNEPTVEWTPKYAGVSPKDRCKLTCEAKGIGYFFVLQPKVVDGTPCSPDSTSVCVQGQCVKAGCDRIIDSKKKFDKCGVCGGNGSTCKKMSGIVTSTRPGYHDIVTIPAGATNIEVKHRNQRGSRNNGSFLAIRAADGTYILNGNFTLSTLEQDLTYKGTVLRYSGSSAALERIRSFSPLKEPLTIQVLMVGHALRPKIKFTYFMKKKTESFNAIPTFSEWVIEEWGECSKTCGSGWQRRVVQCRDINGHPASECAKEVKPASTRPCADLPCPHWQVGDWSPCSKTCGKGYKKRTLKCVSHDGGVLSNESCDPLKKPKHYIDFCTLTQCS |  | ADAMTS-1 was auto-proteolytically cleaved to release v5-epitope tagged C-terminal cleavage fragments | increased expression of exogenous ADAMTS-1 but not ADAMTS-1minusTSP-1 on top of the endogenous ADAMTS-1 promotes degradation of versican |

From patent US20140294846
